Laboratory results: patent US20260125454A1 (SHANGHAI JUNSHI BIOSCIENCES, published 2026)
Where a chain is given by its changes, count along the chain named.

B1: hu208 (antibody, V domains shown)
VH: QVQLVQSGAEVKKPGASVKVSCKASGYTFTDYNMHWVRQAPGQGLEWMGYIYPYNGHTVYNQKFRNRVTMTVDTSSSTAYMELRSLRSDDTAVYYCAKEGLGGYWGQGTLVTVSS
VL: DIQLTQSPSSLSASVGDRVTITCKASQNIDYGGYSYMNWYQQKPGKAPKVLIYSVFNLESGVPSRFSGSGSGTDFTLTISSLQPEDFATYYCQQSNEAPYTFGQGTKLEIK
notes: 3H10 HC-1/3H10 LC2-2
B2: hu221 (antibody, V domains shown)
VH: B1 VH with M70L, K98R
VL: B1 VL
notes: 3H10 HC-2/3H10 LC2-2
B3: hu218 (antibody, V domains shown)
VH: B1 VH with M70L, K98R
VL: DVQLTQSPSFLSASVGDRVTITCQASQNIDGNTYMNWYQQKPGKAPKVLIYSIFNLESGVPSRFSGSGSGTEFTLTISSLQPEDFATYYCQQSNDYPYTFGQGTKLEIK
notes: 3H10 HC-2/2B8 LC2-2
B4: hu10 (antibody, V domains shown)
VH: B1 VH with Y52F, H57V, T58A, Q62R, N66S, M70L, V72I, K98R
VL: B3 VL
notes: 1B2 HC-1/2B8 LC2-2
B5: hu23 (antibody, V domains shown)
VH: B1 VH with G44R, Y52F, H57V, T58A, Q62R, N66S, M70L, R84S, D89E, K98R
VL: B3 VL
notes: 1B2 HC-2/2B8 LC2-2
B6: hu36 (antibody, V domains shown)
VH: QVQLVQSGAEVKKPGASVKVSCKASGYTFIDFNMHWVRQAPGQRLEWMGYIYPYNGDVVYNQNFTNRVTLTVDTSSSTAYMELSSLRSEDTAVYYCAREGLGGYWGQGTLVTVSS
VL: B3 VL
notes: 1F5 HC-1/2B8 LC2-2
B7: hu49 (antibody, V domains shown)
VH: B6 VH with I30T
VL: B3 VL
notes: 1F5 HC-2/2B8 LC2-2
B8: hu62 (antibody, V domains shown)
VH: B6 VH with I30T, R44G, S84R, E89D
VL: B3 VL
notes: 1F5 HC-3/2B8 LC2-2
B9: hu88 (antibody, V domains shown)
VH: B6 VH with G56A, N63D
VL: B3 VL
notes: 1F5 HC-5/2B8 LC2-2
B10: hu101 (antibody, V domains shown)
VH: B6 VH with I30T, F32Y, I51V, D57G, V58S, V59A, N63K, T65K, N66S
VL: B3 VL
notes: 2A2 HC-1/2B8 LC2-2
B11: hu114 (antibody, V domains shown)
VH: B1 VH with Y50N, H57G, R65N, M70L, R84S, S85R, K98R
VL: B3 VL
notes: 2B8 HC1-1/2B8 LC2-2
B12: hu127 (antibody, V domains shown)
VH: B1 VH with Y50N, H57G, R65N, M70L, K98R
VL: B3 VL
notes: 2B8 HC1-2/2B8 LC2-2
B13: hu140 (antibody, V domains shown)
VH: B1 VH with Y50N, G56A, H57G, R65N, M70L, R84S, S85R, K98R
VL: B3 VL
notes: 2B8 HC1-3/2B8 LC2-2
B14: hu153 (antibody, V domains shown)
VH: B6 VH with A24T, I30T, F32Y, Y52S, D57G, V58T, V59A, N63K, T65K, N66F
VL: B3 VL
notes: 3E5 HC-1/2B8 LC2-2
B15: hu166 (antibody, V domains shown)
VH: B6 VH with I30T, F32Y, Y52S, D57G, V58T, V59A, N63K, T65K, N66F
VL: B3 VL
notes: 3E5 HC-2/2B8 LC2-2
B16: hu179 (antibody, V domains shown)
VH: B1 VH with Y52S, H57G, V59A, R65K, N66F, M70L, R84S, S85R, A92V, K98R
VL: B3 VL
notes: 3E5 HC-3/2B8 LC2-2
B17: hu192 (antibody, V domains shown)
VH: QVQLVQSGAEVKKPGASVKVSCKTSGYTFTDYNMHWVRQAPGQRLEWMGYISPYNAGTAYNQKFKFRVTLTVDTSSSTAYMELSSLRSEDTAVYYCAREGLGGYWGQGTLVTVSS
VL: B3 VL
notes: 3E5 HC-4/2B8 LC2-2
B18: hu205 (antibody, V domains shown)
VH: B1 VH
VL: B3 VL
notes: 3H10 HC-1/2B8 LC2-2
B19: hu21 (antibody, V domains shown)
VH: B6 VH with I30T, F32Y, Y52F, D57V, V58A, Q62R, N63K, T65R, N66S
VL: DIVLTQSPDSLAVSLGERATINCKASQNIDFDGYAYMNWYQHKPGQPPKVLIYSVFNLESGVPDRFSGSGSGTDFTLTISSLQAEDVAVYYCQQSHEVPYTFGQGTKLEIK
notes: 1B2 HC-2/1F5 LC1-4
B20: hu25 (antibody, V domains shown)
VH: B6 VH with I30T, F32Y, Y52F, D57V, V58A, Q62R, N63K, T65R, N66S
VL: B19 VL with F31Y, D32G, A35S, H42Q, H96N, V98A
notes: 1B2 HC-2/3H10 LC2-1
B21: hu26 (antibody, V domains shown)
VH: B6 VH with I30T, F32Y, Y52F, D57V, V58A, Q62R, N63K, T65R, N66S
VL: B1 VL
notes: 1B2 HC-2/3H10 LC2-2
B22: hu29 (antibody, V domains shown)
VH: B6 VH
VL: EIVLTQSPATLSLSPGERATLSCKASQNIDYDGYAYLNWYQQKPGQAPRVLIYSVFNLESGIPARFSGSGSGTDFTLTISSLEPEDFAVYYCQQSNEFPYTFGQGTKLEIK
notes: 1F5 HC-1/1A2 LC2-3
B23: hu33 (antibody, V domains shown)
VH: B6 VH
VL: DIVLTQSPASLAVSPGQRATITCKASQNIDFDGYAYMNWYQQKPGQPPKVLIYSVFNLESGVPARFSGSGSGTDFTLTINPVEADDTANYYCQQSHEVPYTFGQGTKLEIK
notes: 1F5 HC-1/1F5 LC1-3
B24: hu39 (antibody, V domains shown)
VH: B6 VH
VL: B1 VL
notes: 1F5 HC-1/3H10 LC2-2
B25: hu47 (antibody, V domains shown)
VH: B6 VH with I30T
VL: B19 VL
notes: 1F5 HC-2/1F5 LC1-4
B26: hu51 (antibody, V domains shown)
VH: B6 VH with I30T
VL: B19 VL with F31Y, D32G, A35S, H42Q, H96N, V98A
notes: 1F5 HC-2/3H10 LC2-1
B27: hu52 (antibody, V domains shown)
VH: B6 VH with I30T
VL: B1 VL
notes: 1F5 HC-2/3H10 LC2-2
B28: hu67 (antibody, V domains shown)
VH: QVQLVQSGSELKKPGASVKVSCKASGYTFTDFNMHWVRQAPGQGLEWMGYIYPYNGDVVYNQNFTNRFVLSVDSSSSTAYLQISSLKAEDTAVYYCAREGLGGYWGQGTLVTVSS
VL: B23 VL with F31Y, M37L, H96N, V98F
notes: 1F5 HC-4/1A2 LC2-2
B29: hu68 (antibody, V domains shown)
VH: B28 VH
VL: B22 VL
notes: 1F5 HC-4/1A2 LC2-3
B30: hu69 (antibody, V domains shown)
VH: B28 VH
VL: B1 VL with S10F, G32D, S35A, M37L, D74E, A98F
notes: 1F5 HC-4/1A2 LC2-4
B31: hu70 (antibody, V domains shown)
VH: B28 VH
VL: B22 VL with Y31F, L37M, N96H, F98V
notes: 1F5 HC-4/1F5 LC1-1
B32: hu72 (antibody, V domains shown)
VH: B28 VH
VL: B23 VL
notes: 1F5 HC-4/1F5 LC1-3
B33: hu73 (antibody, V domains shown)
VH: B28 VH
VL: B19 VL
notes: 1F5 HC-4/1F5 LC1-4
B34: hu75 (antibody, V domains shown)
VH: B28 VH
VL: B3 VL
notes: 1F5 HC-4/2B8 LC2-2

Biological target: T1, Biotin-huCGRPaSA (human, not fully specified; biotin (position not given))
T1 construct: exact construct ('aSA') not explained; also called Biotin CGRPaSA; full-length (1-37) CGRP
T1 peptide: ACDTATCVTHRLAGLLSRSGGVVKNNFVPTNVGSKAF
Experiment: ELISA, supernatant; relative to chimeric C245
Method in brief: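 Antibodies, including reference chimeric C245, titrated 2.5-fold from 1000 ng/mL and incubated 60 min at 37°C on wells coated with 1.0 μg/mL biotin-CGRPaSA and blocked with 2% BSA. Bound IgG detected with HRP anti-human Fc antibody and TMB, acid-stopped, absorbance 450/620 nm.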

Row | Binder | Relative binding activity, %
1 | B1 | 15%
2 | B2 | 24%
3 | B3 | 24%
4 | B4 | 14%
5 | B5 | 17%
6 | B6 | 40%
7 | B7 | 60%
8 | B8 | 15%
9 | B9 | 93%
10 | B10 | 48%
11 | B11 | 41%
12 | B12 | 24%
13 | B13 | 47%
14 | B14 | 56%
15 | B15 | 19%
16 | B16 | 77%
17 | B17 | 15%

Row | Binder | Relative binding activity, %
18 | B18 | 26%
19 | B19 | 33%
20 | B20 | 66%
21 | B21 | 20%
22 | B22 | 63%
23 | B23 | 18%
24 | B24 | 51%
25 | B25 | 10%
26 | B26 | 83%
27 | B27 | 25%
28 | B28 | 115%
29 | B29 | 104%
30 | B30 | 102%
31 | B31 | 116%
32 | B32 | 115%
33 | B33 | 106%
34 | B34 | 84%
